Experimental data: doi:10.1101/2022.04.26.489478

Target: GST-GABARAP (human), O95166
Experiment: microscopy-based on-bead protein-protein interaction assay
Details: remark: other sources report otherwise

GST-GABARAP (human), O95166, sequence (O95166 whole entry): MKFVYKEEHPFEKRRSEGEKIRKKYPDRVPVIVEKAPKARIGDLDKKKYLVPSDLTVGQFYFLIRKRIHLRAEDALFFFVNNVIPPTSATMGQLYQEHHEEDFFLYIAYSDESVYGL

- percent recruited less than wild type C53: 78%
B1: mCherry tagged HsC53^sAIM, Q96JB5 1-506 (natural protein)
chain: MEDHQHVPIDIQTSKLLDWLVDRRHCSLKWQSLVLTIREKINAAIQDMPESEEIAQLLSGSYIHYFHCLRILDLLKGTEASTKNIFGRYSSQRMKDWQEIIALYEKDNTYLVELSSLLVRNVNYEIPSLKKQIAKCQQLQQEYSRKEEECQAGAAEMREQFYHSCKQYGITGENVRGELLALVKDLPSQLAEIGAAAQQSLGEAIDVYQASVGFVCESPTEQVLPMLRFVQKRGNSTVYEWRTGTEPSVVERPHLEELPEQVAEDAIDAGDFGVEAVSEGTDSGISAEAAGIDAGIFPESDSKDPGGDGIDAGDDAVALQITVLEAGTQAPEGVARGPDALTLLEYTETRNQFLDELMELEIFLAQRAVELSEEADVLSVSQFQLAPAILQGQTKEKMVTMVSVLEDLIGKLTSLQLQHLFMILASPRYVDRVTEFLQQKLKQSQLLALKKELMVQKQQEALEEQAALEPKLDLLLEKTKELQKLIEADISKRYSGRPVNLMGTSL
